Data published in patent publication US11421006B2, “T cell epitopes from Cockroach and methods of making and using same” (LA JOLLA INSTITUTE FOR ALLERGY AND IMMUNOLOGY, priority 2012, dated 2022).
Entries after “also recorded” stand apart in the source; their conditions may differ.

B1: Bla g 5: German Cockroach allergen Bla g 5 (protein, listed as Blattella germanica)
chain: MAPSYKLTYCPVKALGEPIRFLLSYGEKDFEDYRFQEGDWPNLKPSMPFGKTPVLEIDGKQTHQSVAISRYLGKQFGLSGKDDWENLEIDMIVDTISDFRAAIANYHYDADENSKQKKWDPLKKETIPYYTKKFDEVVKANGGYLAAGKLTWADFYFVAILDYLNHMAKEDLVANQPNLKALREKVLGLPAIKAWVAKRPPTDL
B2: Bla g 6: German Cockroach allergen Bla g 6 (protein, listed as Blattella germanica)
chain: MADEQLQLPPEQISVLRKAFDAFDREKSGSISTNMVEEILRLMGQPFNRRTLEELIDEVDADKSGRLEFDEFVTLAAKFIIEEDSEAMEKELREAFRLYDKEGNGYIPTSCLREILRELDEQLTSDELDMMIEEIDADGSGTVDFDEFMEMMTG
B3: Bla g 1: German Cockroach (Blattella germanica) allergen Bla g 1 (protein, listed as Blattella germanica)
chain: NAIEFLNNIHDLLGIPHIPVTARKHHRRGVGITGLIDDIIAILPVDDLYALFQEKLETSPEFKALYDAIRSPEFQSIVGTLEAMPEYQNLIQKLKDKGVDVDHIIELIHQIFNIVRDTRGLPEDLQDFLALIPTDQVLAIAADYLANDAEVKAAVEYLKSDEFETIVVTVDSLPEFKNFLNFLQTNGLNAIEFLNNIHDLLGIPHIPVTGRKHLRRGVGITGLIDDIIAILPVDDLYALFQEKLETSPEFKALYDAIRSPEFQSIVETLKAMPEYQSLIQKLKDKGVDVDHIIELIHQIFNIVRDTRGLPEDLQDFLALIPIDQILAIAADYLANDAEVQAAVEYLKSDEFETIVVTVDSLPEFKNFLNFLQTNGLNAIEFINNIHDLLGIPHIPATGRKHVRRGVGINGLIDDVIAILPVDELYALFQEKLESSPEFKALYDAIRSPEFQSIVQTLKAMPEYQDLIQRLKDKGVDVDHFIELIKKLFGLSH
B4: Bla g 2: German Cockroach allergen Bla g 2 (protein, listed as Blattella germanica)
chain: MIGLKLVTVLFAVATITHAAELQRVPLYKLVHVFINTQYAGITKIGNQNFLTVFDSTSCNVVVASQECVGGACVCPNLQKYEKLKPKYISDGNVQVKFFDTGSAVGRGIEDSLTISNLTTSQQDIVLADELSQEVCILSADVVVGIAAPGCPNALKGKTVLENFVEENLIAPVFSIHHARFQDGEHFGEIIFGGSDWKYVDGEFTYVPLVGDDSWKFRLDGVKIGDTTVAPAGTQAIIDTSKAIIVGPKAYVNPINEAIGCVVEKTTTRRICKLDCSKIPSLPDVTFVINGRNFNISSQYYIQQNGNLCYSGFQPCGHSDHFFIGDFFVDHYYSEFNWENKTMGFGRSVESV
B5: Bla g 4: German Cockroach allergen Bla g 4 (protein, listed as Blattella germanica)
chain: AVLALCATDTLANEDCFRHESLVPNLDYERFRGSWIIAAGTSEALTQYKCWIDRFSYDDALVSKYTDSQGKNRTTIRGRTKFEGNKFTIDYNDKGKAFSAPYSVLATDYENYAIVEGCPAAANGHVIYVQIRFSVRRFHPKLGDKEMIQHYTLDQVNQHKKAIEEDLKHFNLKYEDLHSTCH
B6: Bla g 7: German Cockroach allergen Bla g 7 (protein, listed as Blattella germanica)
chain: MDAIKKKMQAMKLEKDNAMDRALLCEQQARDANIRAEKAEEEARSLQKKIQQIENDLDQTMEQLMQVNAKLDEKDKALQNAESEVAALNRRIQLLEEDLERSEERLATATAKLAEASQAADESERARKILESKGLADEERMDALENQLKEARFMAEEADKKYDEVARKLAMVEADLERAEERAETGESKIVELEEELRVVGNNLKSLEVSEEKANLREEEYKQQIKTLNTRLKEAEARAEFAERSVQKLQKEVDRLEDELVHEKEKYKYICDDLDMTFTELIGN

Tests used:
[1] = test system: Bla g-specific T cells (PBMC); assay: ELISPOT assays: IL-5, IFN-γ and IL-10 production by in vitro expanded PBMC of Cockroach-allergic donors; type: cell-based, human; conditions: for Donors responding (%), T cell / Donors responding, T cell (number): 34 donors; for IFN-γ SFC / IL-5 SFC / Total SFC: all peptides of the protein; for Total SFC: IL-5 plus IFN-γ; for share of the response accounted for by the allergen: discussion, PBMC responses from 30 allergic donors; for Ratio IL-5/IFNγ: per protein; for % Total Response: share of total Bla g response per protein
Protocol: In vitro expansion of Bla g-specific T cells: PBMC were cultured in RPMI 1640 (V Scientific, Tarzana, Calif.) supplemented with 5% human serum (Cellgro, Herndon, Va.) at a density of 2×10^6 cells/ml in 24-well plates (BD Biosciences, San Jose, Calif.) and stimulated with 25 μg/ml German Cockroach (Blatella germanica; Bla g) extract (Greer, Lenoir, N.C.), or individual peptides. […] On day 14, cells were harvested and screened for reactivity against Bla g-specific peptide pools or individual peptides. ELISPOT assays: The production of IL-5, IFN-γ, and IL-10 was analyzed in ELISPOT assays. […] Cells were then incubated at a density of 1×10^5/well either with peptide pools or individual peptides (10 μg/ml), German Cockroach extract (25 μg/ml), PHA (10 μg/ml), or medium (containing 1% DMSO corresponding to the percentage of DMSO in the pools/peptides) as a control. […] Louis, Mo.). Spots were counted by computer-assisted image analysis (Zeiss, KS-ELISPOT reader, Munich, Germany). Each assay was performed in triplicate. The level of statistical significance was determined with a Student's t-test using the mean of triplicate values of the response against relevant pools or individual peptides versus the response against the DMSO control.

[2] = test system: specific IgE antibody in donor sera; assay: Serological determinations: specific IgE antibody binding by (streptavidin-)ImmunoCAP; design: species or system human; conditions: 34 donors
Protocol: Serological determinations: Sera were analyzed for specific IgE antibody binding to rBla g 1, rBla g 2, rBla g 4, rBla g 5 and rPer a 7 using allergen-coated streptavidin-ImmunoCAPs. Recombinant allergens were expressed in Pichia pastoris (rBla g 1, rBla g 2, rBla g 4, rPer a 7) or Escherichia coli (rBla g 5) and purified by affinity chromatography. Purified allergens were biotinylated and bound to streptavidin-coated ImmunoCAPs (Phadia US Inc., Portage, Mich.) at an optimized amount of 1 μg per ImmunoCAP. Specific IgE antibody binding to extracts from Blattella germanica (i6), Dermatophagoides pteronyssinus (d1) and D. farinae (d2), and total IgE antibody were also measured by ImmunoCAP analysis.

[3] = Correlation between IgE and T cell responses per donor; design: species or system human; conditions: for Donors with Responses to: Both: IgE and T cell
From the text: The correlation between T cell responses and IgE responses was further investigated by examining for each donor which allergens were recognized by IgE and T cell responses (Table V and Table IX).

Row | Molecule | T cell response pattern (IL-5 / IFN-γ), in words [1] | Donors responding (%), T cell [1] | Donors responding, T cell (number) [1] | IFN-γ SFC [1] | IL-5 SFC [1] | Total SFC [1] | share of the response accounted for by the allergen [1] | donors with a strong Th1 bias (ratio >5-fold) ([1]; of the 11 donors responding) | donors with a strong Th2 bias ([1]; of the 11 donors responding) | donors with balanced responses ([1]; of the 11 donors responding) | Ratio IL-5/IFNγ [1] | % Total Response [1] | Donors responding (%), IgE [2] | Donors responding, IgE (number) [2] | Donors with Responses to: IgE Only [3] | Donors with Responses to: Neither [3] | Donors with Responses to: T Cell Only [3] | Donors with Responses to: Both [3]
1 | B1 | both IL-5 and IFN-γ responses were detected | 32% | 11 | 6875 SFC | 9637 SFC | 16512 SFC | 65% | 3 | 3 | 5 | 1.40 | 67.7% | 44% | 15 | 8 | 15 | 4 | 7
2 | B2 | clear preponderance of IL-5 | 17% | 5 | 310 SFC | 4045 SFC | 4355 SFC | 20% |  |  |  | 13.0 | 17.9% |  |  |  |  |  | 
3 | B3 |  | 12% | 4 | 890 SFC | 1083 SFC | 1973 SFC |  |  |  |  | 1.22 | 8.1% | 12% | 4 | 3 | 27 | 3 | 1
4 | B4 | Little or no response; also recorded: responses were detected only for IFN-γ, and not for IL-5 | 9% | 3 | 1553 SFC | 0 SFC | 1553 SFC |  |  |  |  | <0.01 | 6.4% | 24% | 8 | 7 | 24 | 2 | 1
5 | B5 | Little or no response | 0 (0) % | 0 (0) | 0 SFC | 0 SFC | 0 SFC |  |  |  |  |  | 0.0% | 12% | 4 | 4 | 30 | 0 | 0
6 | B6 | Little or no response |  |  | 0 SFC | 0 SFC | 0 SFC |  |  |  |  |  | 0.0% |  |  | 4 | 30 | 0 | 0
